In US20240294622A1 (SUZHOU TRANSCENTA THERAPEUTICS, published 2024):

T1: Mouse Gremlin-His (R&D) (mouse, UniProt O70326 25-184)
T1 construct: Lys25-Asp184 with 10xHis, R&D 956-GR; also called mouse gremlin (R&D); mGREM1
T1 sequence: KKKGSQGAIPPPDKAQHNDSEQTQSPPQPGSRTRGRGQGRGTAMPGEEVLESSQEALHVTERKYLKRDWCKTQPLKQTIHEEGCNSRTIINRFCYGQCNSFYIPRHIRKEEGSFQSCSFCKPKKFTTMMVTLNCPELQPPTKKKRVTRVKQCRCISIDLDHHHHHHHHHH

T2: human Gremlin_Q27P (C-terminal His-tag) (human, UniProt O60565 25-184)
T2 construct: culture supernatant used
T2 chain: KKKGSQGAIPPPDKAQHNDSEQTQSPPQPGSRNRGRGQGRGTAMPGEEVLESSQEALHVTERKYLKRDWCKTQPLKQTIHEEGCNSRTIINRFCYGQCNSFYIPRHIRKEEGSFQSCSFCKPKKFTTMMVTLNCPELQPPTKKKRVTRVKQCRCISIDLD

T3: human Gremlin N33T (C-terminal His-tag) (human, UniProt O60565 25-184)
T3 construct: culture supernatant used
T3 chain: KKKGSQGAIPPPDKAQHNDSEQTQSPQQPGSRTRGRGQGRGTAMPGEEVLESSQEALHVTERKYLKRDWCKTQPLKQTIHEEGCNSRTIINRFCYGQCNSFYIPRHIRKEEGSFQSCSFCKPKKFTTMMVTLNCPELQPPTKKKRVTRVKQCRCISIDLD

T4: human Gremlin_Q27P/N33T (C-terminal His-tag) (human, UniProt O60565 25-184 at identity 1.00))
T4 construct: culture supernatant used
T4 chain: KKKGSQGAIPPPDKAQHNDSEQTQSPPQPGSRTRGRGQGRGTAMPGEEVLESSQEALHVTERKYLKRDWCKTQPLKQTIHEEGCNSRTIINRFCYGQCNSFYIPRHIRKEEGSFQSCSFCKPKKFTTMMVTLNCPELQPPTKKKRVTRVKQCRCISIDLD


Experiments:
[1] = target: T1, Mouse Gremlin-His (R&D); experiment: ELISA, coated mouse gremlin (R&D)
Method: Clear polystyrene plates (BEAVER) were coated with 100 μl/well of a […] hGREM1 (ACRO) and mouse gremlin (R&D) in high pH coating buffer overnight at 4° C. Then the plates were washed once on an automatic plate washer using PBS+0.1% Tween 20 (Sigma). 100 μl of block solution consisting of PBS+1% BSA+1% normal goat serum+0.5% Tween 20 (Sigma) was added to each well and incubated at room temperature for 2 hours. Then 100 μl of antibodies in antibody dilution buffer containing PBS+1% BSA+1% normal goat serum+0.01% Tween 20 starting from 2 μg/ml and then serial dilutions were added to each well of the plate and incubated for 1 hours at room temperature. Afterward the plates were washed three times with 200 μl of PBS+0.1% Tween20 followed by adding 100 μl/well 1:10000 Goat anti mouse IgG-HRP (abcam), and incubate for 1 hour at room temperature. They were then washed 3× with PBS+0.1% Tween20. Finally, 100 µl/well of TMB (Pierce) was added to each well and after several minutes add 50 μl of stop solution to each well. The plates were read on a Multiscan FC microplate reader (Thermo Scientific) at […].

[2] = target: T2, human Gremlin_Q27P (C-terminal His-tag); experiment: BLI (Octet): antibody loaded on AHC sensor, supernatant of the gremlin variant as analyte
Method: (§1) The supernatant for Gremlin WT and mutants to be tested were added in the Association Column of the plate, 100 ul per well. Media or KD buffer was used as a reference control. Put AHC sensors in the 1st Baseline Column for 60 s to get the 1st baseline, then in the Loading Column for 300 s to capture the Gremlin antibody. After that, put the sensors in the 2nd Baseline Column for 60 s to get the 2nd baseline. Then put them in the Association Column for 300 s to let Gremlin/Gremlin Ab associate completely, put the sensors in the dissociation Column for 300 s. Analyze the group data by ForteBio (Octet96)

[3] = target: T3, human Gremlin N33T (C-terminal His-tag); experiment: as above
Method: as §1

[4] = target: T4, human Gremlin_Q27P/N33T (C-terminal …); experiment: as above
Method: as §1

| EC50 [1] [ng/mL] | binding result [2] | binding result [3] | binding result [4] | Binder |
| --- | --- | --- | --- | --- |
| 4.56 |  |  |  | 36F5 (antibody, V domains shown, mouse hybridoma antibody; also called hybridoma 36F5) VH: QVQLQQSGAELARPGASVKLSCKASGYSFTSSGIGWVKQRSGQGLEWIGEIYPRSGNTYNNEKFKGKATLTADKSSSTVYMELRSLTSEDSAVYFCVREAYSHHYYAMDYWGQGTSVTVFS VL: DVLMTQTPLSLPVSLGGQASISCRSSQSLLHSNGNTYLEWYLQKPGQSPKLLIYKVSNRFSGVPDRLSGSGSGTDFTLKISRVEAEDLGVYYCFQGSHVPFTFGSGTKLEIN |
|  | binds | binds | binds | 14E3 (antibody, V domains shown, mouse hybridoma antibody; also called hybridoma 14E3; anti-gremlin1 antibody 14E3) VH: QIQLVQSGPELKKPGETVKISCKTSGSTFTTYGMAWMKQAPGKGLTWMGWINTLSGEPTYADDFKGRFAFSLKTSANTAYLQINNLKNEDAATYFCAREPMDYWGQGTSVIVSS VL: not shown |
